Measurements as given in US20220305006A1 (University of California, published 2022).

Key:
Assay in all cases: cell-based or functional assay
[1] = molecular target: Recombinant Human Cathepsin D (human, UniProt P07339 65-412)
[2] = molecular target: BACE1 expressed from a transfected plasmid in 293T cells (NRG1 and PSGL1 assays)
[3] = molecular target: BACE in CHO-7W cells (Chinese hamster ovary cells stably transfected with wildtype human APP)

Chain of Recombinant Human Cathepsin D (P07339 65-412): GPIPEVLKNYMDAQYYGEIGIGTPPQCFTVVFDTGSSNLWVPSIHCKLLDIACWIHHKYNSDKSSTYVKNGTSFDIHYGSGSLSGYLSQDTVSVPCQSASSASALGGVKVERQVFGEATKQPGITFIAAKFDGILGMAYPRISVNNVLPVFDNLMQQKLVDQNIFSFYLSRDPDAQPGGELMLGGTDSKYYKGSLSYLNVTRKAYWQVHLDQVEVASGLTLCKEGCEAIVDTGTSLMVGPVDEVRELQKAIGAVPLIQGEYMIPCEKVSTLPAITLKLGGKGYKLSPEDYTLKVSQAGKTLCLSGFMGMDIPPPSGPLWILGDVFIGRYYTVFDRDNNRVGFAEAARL

- Cat D activity (fluorogenic substrate), IC50 [1]: > 5 µM
- NRG1 cleavage by BACE in co-transfected 293T cells (secreted alkaline phosphatase), EC50 [2]: > 10 µM
- PSGL1 cleavage by BACE in co-transfected 293T cells (secreted alkaline phosphatase), EC50 [2]: > 10 µM
- decrease of BACE cleavage product sAPPβ from CHO-7W cells, EC50 [3]: ~10 µM
Binder: Ac-ALYPYFLPISAK-NH2 [Peptide 65007]
